Sequences and labels used below:
T1: Mcm2 (S. cerevisiae, UniProt P29469 1-868)
T1 sequence: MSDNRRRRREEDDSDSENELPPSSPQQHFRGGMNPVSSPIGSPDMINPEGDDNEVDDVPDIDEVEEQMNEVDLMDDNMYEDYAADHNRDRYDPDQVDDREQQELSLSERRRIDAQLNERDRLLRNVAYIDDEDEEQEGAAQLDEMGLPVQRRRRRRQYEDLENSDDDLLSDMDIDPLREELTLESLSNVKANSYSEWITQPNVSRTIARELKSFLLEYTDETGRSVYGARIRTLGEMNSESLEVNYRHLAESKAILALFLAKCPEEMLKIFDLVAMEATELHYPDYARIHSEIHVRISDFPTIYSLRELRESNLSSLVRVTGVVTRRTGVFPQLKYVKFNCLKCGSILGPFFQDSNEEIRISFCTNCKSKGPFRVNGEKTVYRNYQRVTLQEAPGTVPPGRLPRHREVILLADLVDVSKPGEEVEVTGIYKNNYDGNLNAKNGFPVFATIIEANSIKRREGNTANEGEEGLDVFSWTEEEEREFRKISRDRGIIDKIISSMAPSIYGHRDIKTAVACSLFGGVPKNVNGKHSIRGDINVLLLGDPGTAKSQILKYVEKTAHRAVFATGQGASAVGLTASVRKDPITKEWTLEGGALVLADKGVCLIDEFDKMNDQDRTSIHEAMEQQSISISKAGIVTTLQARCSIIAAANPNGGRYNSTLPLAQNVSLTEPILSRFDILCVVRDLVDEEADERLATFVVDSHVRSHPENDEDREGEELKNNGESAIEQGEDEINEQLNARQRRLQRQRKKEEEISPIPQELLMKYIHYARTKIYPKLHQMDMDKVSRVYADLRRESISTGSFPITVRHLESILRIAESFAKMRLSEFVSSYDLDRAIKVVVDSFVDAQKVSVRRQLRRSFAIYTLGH

T2: Orc4 (S. cerevisiae, UniProt P54791 1-529)
T2 sequence: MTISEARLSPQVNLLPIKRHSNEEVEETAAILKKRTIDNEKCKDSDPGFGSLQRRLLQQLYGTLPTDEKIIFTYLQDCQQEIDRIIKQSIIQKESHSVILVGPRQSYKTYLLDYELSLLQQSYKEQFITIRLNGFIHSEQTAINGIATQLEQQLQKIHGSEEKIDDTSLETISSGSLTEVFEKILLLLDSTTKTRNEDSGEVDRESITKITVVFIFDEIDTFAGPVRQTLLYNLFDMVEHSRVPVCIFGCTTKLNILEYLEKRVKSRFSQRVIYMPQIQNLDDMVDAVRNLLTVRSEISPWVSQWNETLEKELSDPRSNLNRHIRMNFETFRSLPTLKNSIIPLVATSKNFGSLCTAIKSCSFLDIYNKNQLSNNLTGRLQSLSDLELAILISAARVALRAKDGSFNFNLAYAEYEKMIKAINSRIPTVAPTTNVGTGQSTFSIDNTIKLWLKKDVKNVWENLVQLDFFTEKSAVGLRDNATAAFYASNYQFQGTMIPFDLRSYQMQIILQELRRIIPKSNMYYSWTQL

T3: Orc2 (S. cerevisiae, UniProt P32833 1-620)
T3 sequence: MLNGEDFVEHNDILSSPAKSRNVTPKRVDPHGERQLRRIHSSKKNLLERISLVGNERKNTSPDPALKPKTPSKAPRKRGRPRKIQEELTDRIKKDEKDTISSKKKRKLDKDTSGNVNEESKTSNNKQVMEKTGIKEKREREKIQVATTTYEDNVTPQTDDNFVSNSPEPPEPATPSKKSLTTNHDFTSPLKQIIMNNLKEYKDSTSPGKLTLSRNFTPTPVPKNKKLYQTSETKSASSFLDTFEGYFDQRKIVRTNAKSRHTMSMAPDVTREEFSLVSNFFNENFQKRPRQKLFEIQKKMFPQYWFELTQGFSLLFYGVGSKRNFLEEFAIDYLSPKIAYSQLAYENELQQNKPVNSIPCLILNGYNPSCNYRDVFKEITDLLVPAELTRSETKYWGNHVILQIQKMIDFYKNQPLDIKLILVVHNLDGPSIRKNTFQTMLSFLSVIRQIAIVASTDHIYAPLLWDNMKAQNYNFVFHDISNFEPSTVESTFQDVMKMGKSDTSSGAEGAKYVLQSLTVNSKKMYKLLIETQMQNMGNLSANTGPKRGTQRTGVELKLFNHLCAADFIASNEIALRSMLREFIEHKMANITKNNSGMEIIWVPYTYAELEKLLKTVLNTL

B1: Orc5 (natural protein)
chain: MNVTTPEVAFREYQTNCLASYISADPDITPSNLILQGYSGTGKTYTLKKYFNANPNLHAVWLEPVELVSWKPLLQAIARTVQYKLKTLYPNIPTTDYDPLQVEEPFLLVKTLHNIFVQYESLQEKTCLFLILDGFDSLQDLDAALFNKYIKLNELLPKDSKINIKFIYTMLETSFLQRYSTHCIPTVMFPRYNVDEVSTILVMSRCGELMEDSCLRKRIIEEQITDCTDDQFQNVAANFIHLIVQAFHSYTGNDIFALNDLIDFKWPKYVSRITKENIFEPLALYKSAIKLFLSTDDNLSENGQGESAITTNRDDLENSQTYDLSIISKYLLIASYICSYLEPRYDASIFSRKTRIIQGRAAYGRRKKKEVNPRYLQPSLFAIERLLAIFQAIFPIQGKAESGSLSALREESLMKANIEVFQNLSELHTLKLIATTMNKNIDYLSPKVRWKVNVPWEIIKEISESVHFNISDYFSDIHE
B2: Orc3 (natural protein)
chain: MSDLNQSKKMNVSEFADAQRSHYTVYPSLPQSNKNDKHIPFVKLLSGKESEVNVEKRWELYHQLHSHFHDQVDHIIDNIEADLKAEISDLLYSETTQKRRCFNTIFLLGSDSTTKIELKDESSRYNVLIELTPKESPNVRMMLRRSMYKLYSAADAEEHPTIKYEDINDEDGDFTEQNNDVSYDLSLVENFKRLFGKDLAMVFNFKDVDSINFNTLDNFIILLKSAFKYDHVKISLIFNINTNLSNIEKNLRQSTIRLLKRNYHKLDVSSNKGFKYGNQIFQSFLDTVDGKLNLSDRFVEFILSKMANNTNHNLQLLTKMLDYSLMSYFFQNAFSVFIDPVNVDFLNDDYLKILSRCPTFMFFVEGLIKQHAPADEILSLLTNKNRGLEEFFVEFLVRENPINGHAKFVARFLEEELNITNFNLIELYHNLLIGKLDSYLDRWSACKEYKDRLHFEPIDTIFQELFTLDNRSGLLTQSIFPSYKSNIEDNLLSWEQVLPSLDKENYDTLSGDLDKIMAPVLGQLFKLYREANMTINIYDFYIAFRETLPKEEILNFIRKDPSNTKLLELAETPDAFDKVALILFMQAIFAFENMGLIKFQSTKSYDLVEKCVWRGI

Common to all, as to experiment: cryo-EM structure
Assay [1] addresses B2.
The target of assay [2] is T1, Mcm2.
Assay [3] deals with T2, Orc4.
Assay [4] addresses Mcm6 (S. cerevisiae, UniProt P53091 1-1017).
Assay [5] concerns the target T3, Orc2.

Mcm6, sequence (P53091 whole entry): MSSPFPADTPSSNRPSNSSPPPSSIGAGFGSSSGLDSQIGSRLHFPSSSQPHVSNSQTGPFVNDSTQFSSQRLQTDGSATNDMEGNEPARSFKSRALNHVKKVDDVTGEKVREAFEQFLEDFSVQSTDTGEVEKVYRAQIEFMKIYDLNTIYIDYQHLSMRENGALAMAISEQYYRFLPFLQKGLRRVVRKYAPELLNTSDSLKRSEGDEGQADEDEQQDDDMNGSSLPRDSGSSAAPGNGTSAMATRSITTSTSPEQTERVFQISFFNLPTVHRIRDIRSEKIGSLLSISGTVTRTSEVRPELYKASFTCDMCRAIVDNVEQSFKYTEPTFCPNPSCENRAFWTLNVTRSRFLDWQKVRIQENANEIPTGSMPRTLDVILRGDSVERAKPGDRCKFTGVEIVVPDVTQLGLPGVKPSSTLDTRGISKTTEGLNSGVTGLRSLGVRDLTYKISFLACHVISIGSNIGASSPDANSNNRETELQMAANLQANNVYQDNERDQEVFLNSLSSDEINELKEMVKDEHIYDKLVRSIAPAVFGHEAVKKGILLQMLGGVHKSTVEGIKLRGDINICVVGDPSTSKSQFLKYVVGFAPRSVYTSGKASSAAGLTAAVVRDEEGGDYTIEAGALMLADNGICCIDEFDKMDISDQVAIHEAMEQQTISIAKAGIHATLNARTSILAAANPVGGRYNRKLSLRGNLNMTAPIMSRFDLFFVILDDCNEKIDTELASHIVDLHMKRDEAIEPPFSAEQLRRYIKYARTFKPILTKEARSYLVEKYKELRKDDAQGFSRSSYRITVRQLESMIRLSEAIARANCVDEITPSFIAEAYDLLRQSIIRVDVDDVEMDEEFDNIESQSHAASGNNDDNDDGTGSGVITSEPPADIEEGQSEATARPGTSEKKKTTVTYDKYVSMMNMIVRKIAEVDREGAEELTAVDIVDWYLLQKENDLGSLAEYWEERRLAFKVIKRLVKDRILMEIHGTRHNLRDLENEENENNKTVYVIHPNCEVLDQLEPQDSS

Turning to B1, the binding result in assay [1], in assay [2], in assay [3] and in assay [4] was “binds” each time.
Take B2: the binding result in assay [5] was “binds”.

The values above are taken from PMC5503505 (Nature structural & molecular biology, 2017).
